According to US12714749B2, “Anti-CK8 antibody and exosome compositions, methods of making, and methods of treating” (PEAK WAY GROUP INC., priority 2022, dated 2026):
Like-named read-outs stand apart in the source and are kept apart here. One block for each molecule: values may come before it.

Assays:
MCF-7/MX cells = assay: SRB method, sensitivity of cells to chemotherapy drugs; assay type: cell-based; conditions: Homo sapiens, MCF7/MX, read-out: IC50 of chemotherapy drug
Method: The SRB method was used to detect the sensitivity of cells to chemotherapy drugs: 800 μg/L mitoxantrone was added in the process of culturing MCF-7/MX cells to maintain drug resistance, and the drug administration stopped two weeks before experiment. 100 μg/mL CK8-1R5 monoclonal antibody and/or 100 μg/mL BCRP inhibitor KS176 (Bai Olette, product No.: M01428) were added into cell culture wells of MCF-7/MX cells, and the culture medium was added for blank control. After 24 hours of culture, digestive cells were inoculated into a 96-well plate, with 2000 cells/well, and 3 double wells. The cells were continued to be cultured for 24 h until complete adherence. After adding different concentrations of chemotherapy drugs (mitoxantrone, topotecan, and daunorubicin) to act for 48 h, the culture was terminated. 50 IA of pre-cooled 50% (mass/volume) trichloroacetic acid was added into each well for immobilizing cells, and the culture plate was transferred into a refrigerator at 4° C. after standing for 1 h; the culture plate was taken, each well was washed with deionized water 5 times to remove TCA, and then dried in air; after complete drying, 100 μl of 0.4% SRB prepared with 1% acetic acid was added into each well and stained for 30 min at room temperature, and then the solution in each well was discarded; the well was washed 5 times using 1% acetic acid to remove unbound dye, and dried in air; 150 μl of 10 mM Tris alkaline solution with pH 10.5 was used for dissolving the sample in each well, the sample was oscillated for 5 min on a flat oscillator, and the absorbance of each well at 490 nm was measured on a BioRad microplate reader. The IC50 value was calculated using Prism software.

CK8 protein [1] = molecular target: T1, CK8 protein (Homo sapiens, UniProt P05787); assay: Specificity identification by ELISA; assay type: binding; conditions: plate coated with CK8 protein, MCF7 cell lysate, BSA, Escherichia coli lysate, NIH3T3 lysate; FIG. 3
T1 construct: made in house; host or cells: E. coli BL21 (DE3), vector pET-28a(+)
T1 sequence (P05787 1-483): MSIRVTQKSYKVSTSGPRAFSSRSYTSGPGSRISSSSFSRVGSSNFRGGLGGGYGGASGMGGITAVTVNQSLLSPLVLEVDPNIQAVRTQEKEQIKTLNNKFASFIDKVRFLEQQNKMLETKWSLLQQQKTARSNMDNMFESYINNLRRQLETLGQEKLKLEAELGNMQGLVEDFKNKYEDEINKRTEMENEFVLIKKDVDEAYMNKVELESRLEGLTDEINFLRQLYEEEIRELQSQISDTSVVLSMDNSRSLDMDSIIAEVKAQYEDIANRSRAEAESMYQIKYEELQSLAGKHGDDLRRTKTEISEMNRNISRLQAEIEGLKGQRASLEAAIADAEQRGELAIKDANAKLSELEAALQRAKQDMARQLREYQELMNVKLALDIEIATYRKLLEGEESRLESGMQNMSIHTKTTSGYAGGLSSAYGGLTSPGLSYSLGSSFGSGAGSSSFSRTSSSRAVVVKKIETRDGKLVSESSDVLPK
Method: Specificity identification: each 1 μg of CK8 protein, MCF7 cell lysate, BSA, Escherichia coli lysate and mouse fibroblast NIH3T3 lysate was used to coat the ELISA plate, with PBS wells as blank control. After washing with PBS, 2.5% skimmed milk was added and the plate was sealed at room temperature for 1 h. After washing with PBS, 1:10 diluted cell culture supernatant (monoclonal antibody, primary antibody) was added, the plate was incubated at 37° C. for 1 and washed with 0.05% PBST 3 times, 1:2000 diluted HRP labeled sheep anti-mouse IgG (second antibody) was added, washed after incubation at 37° C. for 1 h, a developing agent ABTS was added, and the absorbance (A) value at 405 nm wavelength was read on the microplate reader.

CK8 protein [2] = molecular target: T1, CK8 protein; assay: Indirect ELISA titer of monoclonal antibody; assay type: binding
Method: The titer of monoclonal antibodies was determined using an indirect ELISA method. An ELIASA plate (100 μl/well) was coated with […] of purified recombinant CK8 protein overnight at 4° C., and sealed for 1 h at 10% BSA room temperature. Different concentrations of CK8-1R5 monoclonal antibodies subjected to multiple dilution were added respectively, and incubated at 37° C. for 1 h. After washing 3 times with 0.05% PBST, HRP labeled sheep anti-mouse IgG with a dilution of 1:2000 was added, and the obtained mixture was incubated at 37° C. for 1 h and then washed. A developing agent ABTS was added, and the absorbance (A) value at a wavelength of 405 nm was read on microplate reader. Simultaneously, SP2/0 myeloma cell culture supernatant was used as negative control. The highest dilution ratio of the sample that produces a positive reaction was used as its potency.

MCF7/MX cells = assay: Tumor growth in mice subcutaneously inoculated with MCF7/MX cells; assay type: in vivo; conditions: after 14 days of administration; FIG. 4
Method: MCF-7 was selected as a source cell of a tumor exosome, and the culture medium was DMEM with 10% Fetal bovine serum. After being transferred to a cell incubator (37° C. constant temperature, volume fraction, 5% CO2) for 48 h, the supernatant of tumor cells was collected and gradient centrifuged (2000×g, centrifuge, 20 min, 10000×g, centrifuge for 30 min) to remove cell debris, large vesicles were removed using a 0.22 μm filter; the filtrate was centrifuged for 70 min at 100000×g, the supernatant was discarded and then resuspended with 100 μL of DPBS at the bottom of a centrifuge tube, and the exosomes were recovered and stored at […] in refrigerator for future use. […]
After the inguinal areas of mice were subcutaneously inoculated with 5×10^5 MCF7/MX cells for 7 d, tumor bearing mice were randomly divided into 5 groups according to random number table: blank control group, exosome group loaded with erythromycin, exosome group loaded with CK8-1R5 monoclonal antibody combined with erythromycin, CK8-1R5 monoclonal antibody group, and erythromycin group. […] After 14 days of the first administration, the mice were euthanized and the tumor volume=short diameter^2×Long diameter/2 was measured[…].

CK8 protein [3] = molecular target: T1, CK8 protein; assay: Binding ability test (antibody on aminopropyl sensor, spectral phase difference); conditions: fit from binding and dissociation phase difference; read-out: affinity for CK8 protein
Method: Binding ability test: 1 mg of CK8-1R5 monoclonal antibody was taken and dispersed into 1 mL of PBS buffer solution; the prepared antibody dispersion was immobilized on an aminopropyl sensor, the sensor immobilized with the antibody was balanced in PBS buffer and then interact with different concentrations of CK8 protein solutions respectively, and then the spectral phase difference caused by CK8 protein binding to the antibody was recorded. After binding equilibrium, the sensor was placed in PBS buffer, the spectral phase difference caused by protein dissociation from the antibody was recorded, and the antibody's affinity to the protein was fit based on the phase difference.

[4] = MCF-7/MX cells without inhibitor, drug 48 h

Molecule: O=C1c2c(O)ccc(O)c2C(=O)c2c(NCCNCCO)ccc(NCCNCCO)c21 [Mitoxantrone, mitoxantrone]
IC50 (MCF-7/MX cells; [4]): 25 ± 1.35 µM

Molecule: COc1cccc2c1C(=O)c1c(O)c3c(c(O)c1C2=O)C[C@@](O)(C(C)=O)C[C@@H]3O[C@H]1C[C@H](N)[C@H](O)[C@H](C)O1 [Daunorubicin, daunorubicin]
IC50 (MCF-7/MX cells; 48 h): 0.431 ± 0.0102 µM

The next lines start with results.

IC50 (MCF-7/MX cells; [4]): 18 ± 1.34 µM
Molecule: CC[C@@]1(O)C(=O)OCc2c1cc1n(c2=O)Cc2cc3c(CN(C)C)c(O)ccc3nc2-1 [Topotecan, topotecan]

absorbance (A) value at 405 nm (CK8 protein [2]; antibody dilution 1:400): 1.679
absorbance (A) value at 405 nm (CK8 protein [2]; antibody dilution 1:800): 1.136
absorbance (A) value at 405 nm (CK8 protein [2]; antibody dilution 1:1600): 0.821
absorbance (A) value at 405 nm (CK8 protein [2]; antibody dilution 1:3200): 0.596
absorbance (A) value at 405 nm (CK8 protein [2]; antibody dilution 1:6400): 0.284
Kd (CK8 protein [3]): 0.00633 µM
B1: CK8-1R5: mouse monoclonal antibody (IgG1) specifically binding to CK8; heavy chain variable region SEQ ID NO: 1, light chain SEQ ID NO: 2 (antibody, V domains shown)
VH: EVQLVESGGGLVQPGGSLRLSCAASGFSLSIPYIYWVRQAPGKGLEWVGAQGCGNFYLGWFGVMSRFTISKDNSKNTLYLQMNSLRAEDTAVYYCARFYGMVEIEHVEDVWGQGTLVTVSS
VL: AYQMTQSPSSVSASVGDRVTITCVQPKPHPMCRKWYQQKPGKAPKLLIYMQKDQDNGVPSRFSGSGSGTDFTLTISSLQPEDFATYYCFFPRSRTVCDPKEFGGGTKVEIK
modifications: Glu Val Gln Leu Val Glu Ser Gly Gly Gly Leu Val Gln Pro Gly Gly Ser Leu Arg Leu Ser Cys Ala Ala Ser Gly Phe Ser Leu Ser Ile Pro Tyr Ile Tyr Trp Val Arg Gln Ala Pro Gly Lys Gly Leu Glu Trp Val Gly Ala Gln Gly Cys Gly Asn Phe Tyr Leu Gly Trp Phe Gly Val Met; The amino acid sequence of the present application is artificially synthesized
specificity of binding (CK8 protein [1]): only binds to CK8 protein or MCF7 cell lysate expressing the CK8 protein
tumor volume difference versus blank control group (MCF7/MX cells): no statistically significant difference (P>0.05)
